Laboratory results as given in PMC6823300, “The molecular basis of monopolin recruitment to the kinetochore” (Chromosoma, 2019).
Where no end group is shown, it is not given here. The star is where a group is joined. FITC = O=C1OC2(c3ccc(O)cc3Oc3cc(O)ccc32)c2ccc(NC(=S)*)cc21

Legend:
[1] = molecular target: T1, S. pombe Csm1 C-terminal globular domain (residues 125–261), wild type (S. pombe, UniProt O13684 125-261); assay: fluorescence polarisation; Csm1 125–261 at 20 nM-250 μM with 20 nM FITC-labelled Mis13 5–17 peptide; 20 mM Tris 7.5, 300 mM NaCl, 10% glycerol, 0.01% NP-40, 1 mM DTT; triplicate; single-site binding model; settings: both partners purified
T1 construct: S. pombe Csm1 (also called Pcs1), C-terminal globular domain, residues 125-261; also called S. pombe Csm1^125–261; Sp Csm1; source: E. coli Rosetta2 (DE3) pLysS, purified
T1 sequence (looked up): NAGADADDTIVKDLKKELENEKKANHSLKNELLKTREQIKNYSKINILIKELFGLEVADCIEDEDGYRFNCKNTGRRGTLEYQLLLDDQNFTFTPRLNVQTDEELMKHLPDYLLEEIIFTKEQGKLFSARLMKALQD

[2] = molecular target: T2, S. cerevisiae Csm1 globular domain (residues 69–190 of 190), untagged (S. cerevisiae, UniProt P25651 69-190); assay: ITC; Microcal ITC 200; His6-MBP-fused Dsn1 fragments at 1–1.5 mM injected into a sample cell containing untagged Csm1 at 100–200 μM; protein buffer (20 mM Tris-HCl pH 7.5, 5% glycerol) plus 300 mM NaCl and 1 mM dithiothreitol; settings: both partners purified
T2 construct: S. cerevisiae Csm1, globular domain, residues 69-190 of 190; also called Sc Csm1^69–190; untagged Csm1
T2 sequence (looked up): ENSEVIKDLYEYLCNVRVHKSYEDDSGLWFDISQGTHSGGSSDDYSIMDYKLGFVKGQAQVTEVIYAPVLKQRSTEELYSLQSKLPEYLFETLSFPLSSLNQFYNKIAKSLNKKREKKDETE

Binder	Kd [1] [µM]	Kd [2] [µM]
{FITC}-PEEQEGFVFVRKG (S. pombe Mis13 (Dsn1), Dsn1-N/Box 1 region, residues 5-17; also called Sp Dsn1-N/Box 1 (residues 5–17); S. pombe Mis13 Dsn1-N region) [Sp Mis13 5–17 peptide (Dsn1-N/Box 1), fluorescein isothiocyanate-labelled]	22	–
DLKFKRHKNKHIQGFPTLGERLDNLQDIKKAKRVENFNSS (domain or fragment, UniProt P40568 71-110, looked up, S. cerevisiae Dsn1, Box 1-2-3 region, residues 71-110 of 576; also called Sc Dsn1^71–110; His6-MBP-fused Dsn1 fragment; source: E. coli Rosetta2 (DE3) pLysS, purified) [His6-MBP-fused S. cerevisiae Dsn1 Box 1-2-3 region (residues 71–110 of 576)]	–	12
